B1: SIRP-α variant (SEQ ID NO: 31) (receptor)
chain: EEELQIIQPDKSVLVAAGETATLRCTITSLFPVGPIQWFRGAGPGRVLIYNQRQGPFPRVTTVSDTTKRNNMDFSIRIGNITPADAGTYYCIKFRKGSPDDVEFKSGAGTELSVRAKPS
notes: also called SIRP-α variant alone
B2: SIRP-α variant construct (SEQ ID NO: 54), intact (other)
chain: QLLFNKTKSVEFTFSNDTVVIPCFVTNMEAQNTTEVYVKWKFKGRDIYTFDGALNKSTVPTDFSSAKIEVSQLLKGDASLKMDKSDAVSHTGNYTCEVTELTREGETIIELKYRVVSGGGGSGGGGSGGGGSGGGGSGGGGSLSGRSDNHGGGGSGGGGSEEELQIIQPDKSVLVAAGETATLRCTITSLFPVGPIQWFRGAGPGRVLIYNQRQGPFPRVTTVSDTTKRNNMDFSIRIGNITPADAGTYYCIKFRKGSPDDVEFKSGAGTELSVRAKPS
notes: uncleaved
B3: SIRP-α variant construct (SEQ ID NO: 53), intact (other)
chain: QLLFNKTKSVEFTFSNDTVVIPCFVTNMEAQNTTEVYVKWKFKGRDIYTFDGALNKSTVPTDFSSAKIEVSQLLKGDASLKMDKSDAVSHTGNYTCEVTELTREGETIIELKYRVVSGGGGSGGGGSGGGGSGGGGSLSGRSDNHGGGGSGGGGSEEELQIIQPDKSVLVAAGETATLRCTITSLFPVGPIQWFRGAGPGRVLIYNQRQGPFPRVTTVSDTTKRNNMDFSIRIGNITPADAGTYYCIKFRKGSPDDVEFKSGAGTELSVRAKPS
notes: uncleaved
B4: SIRP-α variant construct (SEQ ID NO: 52), intact (other)
chain: QLLFNKTKSVEFTFSNDTVVIPCFVTNMEAQNTTEVYVKWKFKGRDIYTFDGALNKSTVPTDFSSAKIEVSQLLKGDASLKMDKSDAVSHTGNYTCEVTELTREGETIIELKYRVVSGGGGSGGGGSGGGGSLSGRSDNHGGGGSGGGGSEEELQIIQPDKSVLVAAGETATLRCTITSLFPVGPIQWFRGAGPGRVLIYNQRQGPFPRVTTVSDTTKRNNMDFSIRIGNITPADAGTYYCIKFRKGSPDDVEFKSGAGTELSVRAKPS
notes: uncleaved
B5: SIRP-α variant construct (SEQ ID NO: 49), intact (other)
chain: SEVTELTREGETGGGGSGGGGSGGGGSLSGRSDNHGGGGSGGGGSEEELQIIQPDKSVLVAAGETATLRCTITSLFPVGPIQWFRGAGPGRVLIYNQRQGPFPRVTTVSDTTKRNNMDFSIRIGNITPADAGTYYCIKFRKGSPDDVEFKSGAGTELSVRAKPS
notes: uncleaved
B6: SIRP-α variant construct (SEQ ID NO: 51), intact (other)
chain: GQYTSEVTELTREGETIIELKGGGGSGGGGSGGGGSLSGRSDNHGGGGSGGGGSEEELQIIQPDKSVLVAAGETATLRCTITSLFPVGPIQWFRGAGPGRVLIYNQRQGPFPRVTTVSDTTKRNNMDFSIRIGNITPADAGTYYCIKFRKGSPDDVEFKSGAGTELSVRAKPS
notes: uncleaved
B7: SIRP-α variant construct (SEQ ID NO: 50), intact (other)
chain: GQYTSEVTELTREGETIIELKGGGGSGGGGSLSGRSDNHGGGGSGGGGSEEELQIIQPDKSVLVAAGETATLRCTITSLFPVGPIQWFRGAGPGRVLIYNQRQGPFPRVTTVSDTTKRNNMDFSIRIGNITPADAGTYYCIKFRKGSPDDVEFKSGAGTELSVRAKPS
notes: uncleaved
B8: SIRP-α variant construct (SEQ ID NO: 48), intact (other)
chain: SEVTELTREGETGGGGSGGGGSLSGRSDNHGGGGSGGGGSEEELQIIQPDKSVLVAAGETATLRCTITSLFPVGPIQWFRGAGPGRVLIYNQRQGPFPRVTTVSDTTKRNNMDFSIRIGNITPADAGTYYCIKFRKGSPDDVEFKSGAGTELSVRAKPS
notes: uncleaved
B9: SIRP-α variant construct (SEQ ID NO: 58), intact (other)
chain: GQLLFNKTKSVEFTFSNDTVVIPCFVTNMEAQNTTEVYVKWKFKGRDIYTFDGALNKSTVPTDFSSAKIEVSQLLKGDASLKMDKSDAVSHTGNYTCEVTELTREGETIIELKYRVVSGGGGSGGGGSGGGGSGGGGSLSGRSDNHGGGGSGGGGSEEELQIIQPDKSVLVAAGETATLRCTITSLFPVGPIQWFRGAGPGRVLIYNQRQGPFPRVTTVSDTTKRNNMDFSIRIGNITPADAGTYYCIKFRKGSPDDVEFKSGAGTELSVRAKPS
notes: uncleaved
B10: SIRP-α variant construct (SEQ ID NO: 57), intact (other)
chain: GQLLFNKTKSVEFTFSNDTVVIPCFVTNMEAQNTTEVYVKWKFKGRDIYTFDGALNKSTVPTDFSSAKIEVSQLLKGDASLKMDKSDAVSHTGNYTCEVTELTREGETIIELKYRVVSGGGGSGGGGSGGGGSLSGRSDNHGGGGSGGGGSEEELQIIQPDKSVLVAAGETATLRCTITSLFPVGPIQWFRGAGPGRVLIYNQRQGPFPRVTTVSDTTKRNNMDFSIRIGNITPADAGTYYCIKFRKGSPDDVEFKSGAGTELSVRAKPS
notes: uncleaved
B11: SIRP-α variant construct (SEQ ID NO: 61), intact (other)
chain: B3 chain with L101Y
notes: uncleaved
B12: SIRP-α variant construct (SEQ ID NO: 60), intact (other)
chain: B3 chain with L101Q
notes: uncleaved
B13: SIRP-α variant construct (SEQ ID NO: 62), intact (other)
chain: B3 chain with T102Q
notes: uncleaved
B14: SIRP-α variant construct (SEQ ID NO: 63), intact (other)
chain: B3 chain with T102H
notes: uncleaved
B15: SIRP-α variant construct (SEQ ID NO: 59), intact (other)
chain: GQLLFNKTKSVEFTFSNDTVVIPCFVTNMEAQNTTEVYVKWKFKGRDIYTFDGALNKSTVPTDFSSAKIEVSQLLKGDASLKMDKSDAVSHTGNYTCEVTELTREGETIIELKYRVVSGGGGSGGGGSGGGGSGGGGSGGGGSLSGRSDNHGGGGSGGGGSEEELQIIQPDKSVLVAAGETATLRCTITSLFPVGPIQWFRGAGPGRVLIYNQRQGPFPRVTTVSDTTKRNNMDFSIRIGNITPADAGTYYCIKFRKGSPDDVEFKSGAGTELSVRAKPS
notes: uncleaved

Numbering of substitutions follows the chain as printed.

The first experiment concerns the target T1, CD47 IgSF domain having amino acids 1-117 and C15S, relative to wild-type CD47 (SEQ ID NO: 35) (human, UniProt Q08722 19-135).
T1 construct: in the assay it was tethered to, or released by cleavage from, the SIRP-α variant (it then still carries spacer and linker residues); also called IgSF domain of CD47
The experiment in a line: inferred from SPR of cleaved constructs SEQ ID NOs: 52-54 on CD47-hFc.
For the molecule B1, the binding result is “binds”.

In a further experiment the target is T2, human CD47-hFc (R & D Systems, catalog number 4670-CD) (human, UniProt Q08722 19-139).
T2 construct: Bought; immobilized by amine coupling on a CM4 chip (370 RU); also called CD47 on the chip; not shown: human Fc (hFc) of a bought protein
T2 sequence (Q08722 19-139 limits assumed): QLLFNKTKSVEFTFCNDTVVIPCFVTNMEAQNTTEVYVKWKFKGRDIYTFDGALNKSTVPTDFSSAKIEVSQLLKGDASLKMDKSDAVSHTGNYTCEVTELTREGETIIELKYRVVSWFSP
The experiment in a line: SPR (Biacore T100), CD47-hFc immobilized on CM4 chip, intact construct injected.
In the case of B2, the binding result is recorded as “no binding (tested: 100 nM)”.

For the molecule B3, the binding result is reported as “no binding (tested: 100 nM)”.

With B4, the binding result is on record as “no binding (tested: 100 nM)”.

In a further experiment the target is T2, human CD47-hFc (R & D Systems, catalog …). The experiment in a line: SPR (Biacore T100), CD47-hFc immobilized on CM4 chip, intact construct at 100 nM. (Surface plasmon resonance follows binding to a sensor surface in real time, without labels.)
As to B5, the binding result was “binds”.

Take B6: the binding result is on record as “binds”.

Take B7: the binding result is “binds”.

In the case of B8, the binding result is recorded as “binds”.

Another experiment has the same target. The experiment in a line: SPR (Biacore T100), CD47-hFc immobilized on CM4 chip, intact construct injected (FIG. 5B).
Regarding B9, the binding result is reported as “no binding (tested: 100 nM)”.

As for B10, the binding result was “no binding (tested: 100 nM)”.

With B11, the binding result is on record as “no binding (tested: 100 nM)”.

Consider B12, for which the binding result is “no binding (tested: 100 nM)”.

As for B13, the binding result is given as “no binding (tested: 100 nM)”.

Consider B14, for which the binding result is reported as “no binding (tested: 100 nM)”.

Consider B15, for which the binding result is “no binding (tested: 100 nM)”.

Values taken from US20250011737A1 (ALX ONCOLOGY, published 2025).
